Data reported in the DeepSol protein solubility set.

Test: soluble on expression in E. coli; label from the status in PepcDB or PDB records

Sequence | soluble on expression in E. coli
MSSEELEQVWSNIKSEARALAECEPMLASFFHATLLKHENLGSALSYILANKLANPIMPAIAIREVVEEAYRSDAHMIVSAARDILAVRLRDPAVDKYSTPLLYLKGFHALQAYRIGHWLWAQDRKALAIYLQNQVSVAFGVDIHPAATIGCGIMLDHATGIVIGETAVVENDVSILQSVTLGGTGKTSGDRHPKIREGVMIGAGAKILGNIEVGRGAKIGAGSVVLQSVPAHTTAAGVPARIVGKPESDKPSLDMDQHFNGSIQGFEYGDGI | not soluble
IGKVNYNIGFNLSDNRAKVISYPNASKALWDSNGNTLYYNGMTIGEIWGYETEGIAKTDAQMTEWLASNDQSKIGSVWGAGDIMYRDLNGDGIVDKGNSTATDHGDLKKIGNSTPRLRFGLSLGADWKGFDIQMFFQGVMKRDLWLSGPMFWGADGGEWQSVGFDEHLDYFRPENTTSIFGANLNSYYPKAYLGDKGNKNKQTQTRYLQNGAYMRMKNLQIGYTFPKAWMNKAKIEKLRIYVSGENLFTISGIADMFDPEATAGNGFSNGKTYPLSKTISFGLNITL | not soluble
GPGSMDSINSVTFEWVRAGPAYTLDGPHVYHSGCLGSYQPAIGGLEMPAGHGKYFYEIQTSDTRCKVGVCTEDAFLSNVNLGDVELHAAQPSSSLNSRLSEANCCLFNCLTCAVEVNGVEVRSLWRLLVPSAGARFGFLVNTDEGAVQLYVNGEYQGLIADTATGFKGKKLRPCIALDAPPTCGAGAEANKSSASVVPPRKIIASTA | not soluble
MSLEIERYIVPKETWPEIIIPVEVQEYIGERKELNLAEELLDRNIREGRGRKVAVYFEDRRVTYRDLYRLSNKIANFLVGIGVQPYDRVGFRTRNMPEAIAVNFGIMKAGAIPVPLNPMWAGKEVSFVSNNAEIKALFVSGDERVFPAVNEVKDEIKTAKAMVVMDGEKEGFIPFSEVTAESAKFDPILLKIGTPALILYTSGTTGLPKGCVHFVENVISSVYLVGKHVWKLTPDDVVGGPAPVSFAMGYGNGCLIPYFHGAAASIWPRFSVENFFKYVEEHGITVFSSLPTSYRMILADPKLEEYMNKYDISSLRLFTGGGEALGAETAKRWKEVFGMDIYESLGATEMLHICIANACAPKPVAGSIGFPVPGYIAKIVDPETGKECGADEVGSLYIKGPTGIRYWNHPSRDLSEKQAKSVKNGWNVLGDFVRKDENGYIYFVSRDDDLIKSSGYRIGPDEIEQPLNTHPAVAECAVIGVPDPEGIRGQVVKAIIRLKEGYTPDEKLKEDILAFLEKHIAKYKLPRIIEFTDKPLPRTPTGKLLRRLLKQSEGHHHHHH | not soluble
MSTETHYKRQLFVILKLFIIMSFMTKCPKCPTYESKKTTNVYRHLREVHNASEAEVDQFRIQRKEGKSLTTKGSGAWKCPVCELVIPTEKGLKNHMNQKHRKKPIDPSTITLATTSPTMVSPPPKRIQLPKSTEKSLVSSVATVRAQPTQKPGGRYKCPVENCTFFKTRKELALHFSEKHDPGSELETMSFETETEFKIWLTCRQEETCSSMQISLSSHDGNRITHFRLCRHEGGQLSLGATKKGATFELSLGATN | not soluble
MRQATRKGLMTMAAATGVIAAAGGAAHADSGAHGTSSGSPGVLSGNTVQAPVHVPVNVCGNTVDVVGVLNPAMGNACANQGGGASGGHGGHGGHGGYGDSGGEGGSHGGSHAGGHATDSPGVGSGNHVEVPIDVPVNVCGNSIDVVGALNPTTGNDCGNGGGGDHSTPPGDHETPPGEPHNPGNPGNPDTPDKPSGPDDETPGDSTDGNRPGAQTVDQPRGDAALAETGSDLPLGLALPVGAGALLAGTVLYRKARASVLEHHHHHH | not soluble
MGSDKIHHHHHHMTLKIEHLTGGYTGVPVIKDINLEIKPGEALGLIGLNGAGKSTTIKHILGLLRPQKGKIILNDVVLTQQPTKFKREVAYIPETPILYPELTLKEHLELTMLSYKLDEKKAWERAHELLKMFRLDDKLEWLPIHFSKGMRQKVMIVSAFLADTSLLVIDEPFTGLDPLAVANLIDLIKQAIANNKMVLMTTHVLADAQQAISNYAVLNNGTIEIIGNLQDIREHYGLKPDDPFDKLYLALNREDHGNA | not soluble
MATVSTNEFKGGLKIMLDNEPCVILENEYVKPGKGQAFNRVRIRKLLTGKVLEKTFKSGDTAEVADVVDIDLDYLYNDGEFYHFMNNSTFEQLAADAKAVGENAKWLVENNTCMLTLWNGNPIAVTPPNFVELEVTETDPGVKGDTQGTGGKPATLSTGAVVRVPLFVQIGEVIKVDTRSAEYVGRVK | soluble
MNILTLMETFSAVVEAGSFTGAAEKLGLSKSFVSKQVSTLEVELGCRLLYRTTRTLSLSDEGSQFYNHCKIIMAEAENARAEVMDRQGAPRGKIRMTIPQSLIISGFGQLLIDFQLQYPEIKLEVIASGRIEDLVKEGIDIALRVGQLEDSSLISRRLMDCTFQVVASSDYIKKWGEPFQPADLMQHNCLIYGDSKINKGWPFRSPSGESITVKAKGNFISNDGGLVVEGMLNGLGIGFGPSFLFNEHVEKGRLKLLLSDYYQPPTAISALYPLNRNLSRRIRLLIDYLSERLSV | not soluble
MPTSLKDTVKLHNGVEMPWFGLGVFKVENGNEATESVKAAIKNGYRSIDTAAIYKNEEGVGIGIKESGVAREELFITSKVWNEDQGYETTLAAFEKSLERLQLDYLDLYLIHWPGKDKYKDTWRALEKLYKDGKIRAIGVSNFQVHHLEELLKDAEIKPMVNQVEFHPRLTQKELRDYCKGQGIQLEAWSPLMQGQLLDNEVLTQIAEKHNKSVAQVILRWDLQHGVVTIPKSIKEHRIIENADIFDFELSQEDMDKIDALNKDERVGPNPDELLF | soluble
MSLTTSFQDTEFFENQIFNTGKYNCLILRTAMNVLREHANLDIVYGGRAIRQLIYETVDTISAMEGVDKKATWLKLISLCDQFRKTGQESLSLAEYTEDFNFESIALQVDAFSLFAKPHDFQVFSVFLEDSEKGKLATILSSLTQKFSNKSRFKICQALLERGQISSSSATELYDEFIQSKVDDTEAIDFQNRLAEVSLKTIREMIFSKTREEDTEMRTASDSSVSPFLRLNAISSLRDIKDAHEKILIDMAIIFLLFDPREETVELLNAIVKRLSSYAMLEHIFCTCFNDQGTELESHSLSKPENSVFWISVADKFPALKQLINGGDMAGAFDYLVEKLDKSYDEVILNVVIELLNRGNGEVVRKNYIKSLNPNRLIDRILIGLVYLLTDDVDNFRATFEDFAETLLLQNEQNKTDAPLEDRLNYKKEVSDLLNAVFASSSNPAAQKSNYYHTLFALAKSQAKVLRHRSHENIISPNSTSSAEAKFIKAALLFEQKAISYLKQVVKSEHLKFNLDDAYLNVYELGLYLQDYKSVYESLQNLSPVADEYDYNYLMKRYLSRLISQGSISTIFPPNDNKLYRDNYLLIDSVLLDLANNELVLASALTFYEYLYSWRLLGSATKVDPTELTDKRGAAEALYMFITRFKLEQPDLLSSTSEQSEDIKQYKLKVLELYLMILNCLQSFESIEDQWLVKSQTNDSLAVVKLNEITLEYYNWLKEIKDEEGHHHHHH | not soluble
MKIATYNVRVDTEYDQDWQWSFRKEAVCQLINFHDWSLCCIQEVRPNQVRDLKAYTTFTCLSAEREGDGQGEGLAILYNEQKVQAIDTGYFWLSETPQQPSIHPEAGCPRIALWGLFKETTQNTPFLVINVHLDHISAHARLAGMTVILEELHDKIAQYPTLLMGDFNAESGEEVHQLVQKKFQDSKNLATHYGPRGTFQNFTYTKPWAELEEIDYIYVKGWQVQQTASLTDSIDGRFPSDHFPLEAEVCIEER | not soluble
MGSDKIHHHHHHYGLGRSWAPGLSQLDGVPRLGGTLDAPLVLNDASELSATPIHIHTRPAAHGDALIEAFRAELTAAQAEDRPVCVSAARHSMGGQSLPRGGHAITVDNAWIEPDTANQTYRVNGGARWRDVIAALDPIGFSPAVMQSNHDFGVAATFSVNAHGWPVPYGPMGATVREIRMVLPGGDLVTASRTENTDLFNLAVGGYGLAGLIVDMEVDMVPNQRLAPSFTPMPAADFPAAFRAAVDDPTMPMGYGRLNVTRESLFEEALLVTYSPTPDQSDIPPAIESGWLSYAASYLYRGQVGREGMKDWRWWVEADLGPRLAGESTRNSLMNEPVITLDDRDPTRVDILHEYFVPFDAFDGFLEACRDVIPDAFVEFLNVTLRFVDSDTDSLLPHSPTPRIAAVMSFTQEKTTRAEADHARMTRALIDRIVAIGGTYYLPYRPHATLDQFTAAYPNAPEFAAAKRALDPTLTLRNNLWDSYLADL | not soluble
MSLTKAYTIVIKLGSSSLVDESTKEPKLSIMTLIVETVTNLKRMGHKVIIVSSGGIAVGLDALNIPHKPKQLSEVQAIAAVGQGRLIARWNMLFSQYGEQTAQILLTRNDILRWNQYNNARNTINELLAMGVIPIVNENDTLSISEIEFGDNDTLSAITAALVGADFLFLLTDVDCLYTDNPRTNPDARPIVLVPELSEGLPGVNTSSGSGSEVGTGGMRTKLIAADLASNAGIETIVMKSDRPEYVPKIVDYIQHHFRPPRHIGNGTQQQFLDLQDTELEQLRRYDVPMHTKFLANDNKHKLKNREFWILHGLITKGAIIIDENSYDKLLSKDMASLTPNAVIEVRDNFHELECVDLKIGQRLPNGELDISKPIQSVGCVRSNYTSLELAKIKGLPSEKIHDVLGYSVSEYVAHRENIAFPPQFEGHHHHHH | not soluble
MTGSNSHITILTLNINGLNSAIKRHRLASWIKSQDPSVCCIQETHLTCRDTHRLKIKGWRKIYQANGKQKKAGVAILVSDKTDFKPTKIKRDKEGHYIMVKGSIQQEELTILNIYAPNTGAPRFIKQVLSDLQRDLDSHTLIMGDFNTPLSTLDRSTRQKVNKDTQELNSALHQADLIDIYRTLHPKSTEYTYVRVRDGHVSQSKIDHIVGSKALLSKCKRTEIITNYLSDHSAIKLELR | soluble
MTAFLPPNLLALFEARPPVQYLPPCQDLLVDKNAKRAPMTGVAQYIQLFEDPKDTPAKIPVVTKAEAKEEKRRQKDELLAYKVEQGIATWNPAENPRASEDPYRTLFVGRINYETSESKLRREFEAYGKIKKLTMVHDEAGKPRGYAFIEYSDKAEMHTAYKKADGIKVDGKRLVVDYERGRTQKTWLPRRLGGGKGDTRKTREAKSVIEEREIASGFGGGYEDRDRERSGSRDRRQDSYRNGGGNDRDRRESSGGFRDNRGGGGGFGGGGRDRFNDRSGGGGYGGDRDRGGDRGGDRGGSRYSTGGGSGGGYRSGGGSSGGGGGGRYGDRR | not soluble
GDQEPPLYVNENDIFTSPTRIEATLNGLYAAIKNTGTKSLMGGKSYLVFDNRGDDVINISNNLVTLFNTYNMNVGITDAENADTWTYAYLAINKVNTFLQSLEGAREVAGENYDRYVQEAKFVRALAYYYLNNLYPTPYSVNPDAKSVPLRLTAEAGTENNNMPRSTVKQIYEHILSDLENISALDTEVNTYTGVTHATQAAANMLKMRVYMAMNEWDKAITAGELVTGYSLPEDVTLIYKAPYFSQESIFSLPMADTNIPNTQQSLAEYYYDGKIMLIDTKSGIMSKPDYSLATDKRIIAFKGEKDLLMKFTDAKTKLQWVPIFRYAETLLDLAECYANKAGGEATAKSLLKQVRGRSVDAATDPLNIDNLSGDALKEAIYNEKRLEFIGEGIRGIDIMRRGEHFIKVGENETINVGPSDEKYTWPIPQVELLLNKDINK | soluble
MGSDKIHHHHHHMTKSLNGLRILNTRPREQAQVLNKKIIESGGIPIDCPTMEIMASETNWINNLPDLTSVNQAIFVSTNAVRYFMMELASKNINWPNSIRVTAIGKGTSRVLNEFNIQVSDVPELPDSEHLLTLNSLQQIRNQTILLVKGEGGRQLIEEYLMLKGAKLCLLSVYKRVMPAIDQEFINSLWRDDLVDIILLTSEQSIHNLFKMFSIEGQMWLQNKPCLVISDRLAKVASLFGIKKILISHPERMIGALFDYKD | not soluble
